Source: patent US12281340B2, “Method of producing N-acyl-amino group-containing compound” (AJINOMOTO CO., INC., priority 2018, dated 2025)

B1: PsIAAL: indoleacetate-lysine synthetase from Pseudomonas savastanoi (PaaK protein), His-tagged (protein, listed as Pseudomonas savastanoi)
chain: MTAYDMEKEWSRISITAAKIHQNNDFEGFTYQDFRTHVPIMDKDGFAAQTERCLERNERNCLIGFTSGTSGNIKRCYYYYDCEVDEDSSLSNVFRSNGFILPGDRCANLFTINLFSALNNTITMMAGNCGAHVVSVGDITLVTKSHFEALNSIKLNVLLGVPSTILQFINAMQHNGVHINIEKVVFTGESLKTFQKKIIRQAFGEQVSIVGVYGSSEGGILGFTNSPCHTEYEFLSDKYFIEKEGDSILITSLTRENFTPLLRYRLGDTATLSMKGDKLYLTDIQREDMSFNFMGNLIGLGIIQQTIKQTLGRSLEIQVHLSVTEERKELVTVFVQASEVDEDERVRIETAIADIPDIKEAYQKNQGTVSVLRKDARDYAVSERGKMLYIIDRRN
modifications: His-tag
notes: indoleacetate-lysine synthetase from Pseudomonas savastanoi (PaaK protein), His-tagged
B2: PaHP: hypothetical protein from Pantoea agglomerans (PaaK protein), His-tagged (protein)
chain: MRSYDHQPTFVEQHNRISIISGSTFRDYEHFARSVPISKLVRMHEVEGKQGDDSSANLPSLIGATSGTSGKMKPVRIQLKNGGCSVSASERNFIYHLRERRVFFPQDVVGNLFTINLFSTLHQSACDIVKYCQGSIVPVGDIALLTRDHFLFLQEVELSVLFGVPATIIQFVEAMLSNKVPIGIKKIVFTGETLRPSQAEWLRSRLGRTLSIVGLYGLSECGFLGLTDAQDCDEYTLFNDDFFFEQDPVHGLLVTSLDPSAKNRLIRYPTGDGVELTFHNKQLKMRIMARKDLLFNFVGNLISVESIAATVAESIPESFIQLVIRSEKGQQELLLVNVAGKNLQTQQLELIAQKLRARPELAEVYQKQRGRLEVHSVAENAFVLSARGKHQFVVDERE
modifications: His-tag; Pantoea agglomerans
notes: hypothetical protein from Pantoea agglomerans (PaaK protein), His-tagged

Tests used:
[1] = Synthesis of N-caprinoyl-amino acid derivative, N-caprinoyl-D-amino acid and N-caprinoyl-peptide using purified acylamino acid synthetase, UPLC-MS detection; format: biochemical; parameters: key: +: Detected; −: Not detected; conditions: +ATP
Description: 0.2 mL of a reaction solution containing 50 mM Tris-HCl, 5 mM amino acid derivative or D-amino acid or peptide, 5 mM sodium caprate, 10 mM ATP, 10 mM MgCl2, 1 mM DTT, 50 μg/mL of the purified enzyme, pH 8.0 was incubated at 25° C. for 24 hours. After completion of the reaction, 0.8 mL of the reaction stop solution (1% (v/v) phosphoric acid, 75% (v/v) methanol) was added, and the mixture was filtrated through the filter followed by being subjected to the UPLC-MS analysis to detect a signal of a molecular weight corresponding to an N-caprinoyl-amino acid derivative, an N-caprinoyl-amino acid or an N-caprinoyl-peptide. A condition for the UPLC-MS analysis is as described in Example 2.
As a result of the UPLC-MS analysis, the signal of the molecular weight corresponding to the N-caprinoyl-amino acid derivative, or N-caprinoyl-amino acid, or N-caprinoyl-peptide was confirmed in the reaction solution containing the enzyme in combination with the amino acid derivative or the D-amino acid or the peptide shown in Table 4 below.

[2] = Synthesis of N-caprinoylamino acid using purified acylamino acid synthetase, UPLC-MS detection; format: biochemical; parameters: key: +: Detected; −: Not detected; conditions: +ATP
Description: 2.0 mL of a reaction solution containing 50 mM Tris-HCl, 5 mM amino acid, 5 mM sodium caprate, 10 mM ATP, 10 mM MgCl2, 1 mM DTT, 50 μg of the purified enzyme, pH 8.0 was incubated at 25° C. for 24 hours. After completion of the reaction, 0.8 mL of a reaction stop solution (1% (v/v) phosphoric acid, 75% (v/v) methanol) was added, and the mixture was filtrated through a filter followed by being subjected to the UPLC-MS analysis to detect a signal of a molecular weight corresponding to an N-caprinoyl amino acid.
A UPLC-MS analysis condition is as follows.
Apparatus: ACQUITY UPLC (Waters)
• Column: ACQUITY UPLC BEH C18 1.7 2.1×100 mm Column (Waters) • Mobile phase A: 0.1% formic acid • Mobile phase B: acetonitrile Gradient
• Flow rate: 0.6 mL/min • Injection amount: 2 μL • Column temperature: 40° C. • Ionization method: ESI-negative
As a result of the UPLC-MS analysis, the signal of the molecular weight corresponding to the N-caprinoyl amino acid was confirmed in the reaction solution combining the enzyme and the amino acid shown in Table 3 below.

[3] = substrates Carnosine and sodium caprate
[4] = substrates D-Ala and sodium caprate
[5] = substrates D-Asp and sodium caprate
[6] = substrates D-Cys and sodium caprate
[7] = substrates D-Glu and sodium caprate
[8] = substrates D-Ile and sodium caprate
[9] = substrates D-Lys and sodium caprate
[10] = substrates L-Asp-L-Phe and sodium caprate
[11] = substrates L-Gly-L-Gly and sodium caprate
[12] = substrates Sarcosine and sodium caprate
[13] = substrates Taurine and sodium caprate
[14] = substrates GABA and sodium caprate
[15] = substrates Gly and sodium caprate
[16] = substrates L-Ala and sodium caprate
[17] = substrates L-Arg and sodium caprate
[18] = substrates L-Asn and sodium caprate
[19] = substrates L-Asp and sodium caprate
[20] = substrates L-Cys and sodium caprate
[21] = substrates L-Gln and sodium caprate
[22] = substrates L-Glu and sodium caprate
[23] = substrates L-His and sodium caprate
[24] = substrates L-Ile and sodium caprate
[25] = substrates L-Leu and sodium caprate
[26] = substrates L-Lys and sodium caprate
[27] = substrates L-Met and sodium caprate
[28] = substrates L-Phe and sodium caprate
[29] = substrates L-Pro and sodium caprate
[30] = substrates L-Ser and sodium caprate
[31] = substrates L-Thr and sodium caprate
[32] = substrates L-Trp and sodium caprate
[33] = substrates L-Tyr and sodium caprate
[34] = substrates L-Val and sodium caprate
[35] = substrates β-Ala and sodium caprate

Molecule | signal of molecular weight corresponding to N-caprinoyl compound [1, 3] | signal of molecular weight corresponding to N-caprinoyl compound [1, 4] | signal of molecular weight corresponding to N-caprinoyl compound [1, 5] | signal of molecular weight corresponding to N-caprinoyl compound [1, 6] | signal of molecular weight corresponding to N-caprinoyl compound [1, 7] | signal of molecular weight corresponding to N-caprinoyl compound [1, 8] | signal of molecular weight corresponding to N-caprinoyl compound [1, 9] | signal of molecular weight corresponding to N-caprinoyl compound [1, 10] | signal of molecular weight corresponding to N-caprinoyl compound [1, 11] | signal of molecular weight corresponding to N-caprinoyl compound [1, 12] | signal of molecular weight corresponding to N-caprinoyl compound [1, 13] | signal of molecular weight corresponding to N-caprinoyl amino acid [2, 14] | signal of molecular weight corresponding to N-caprinoyl amino acid [2, 15] | signal of molecular weight corresponding to N-caprinoyl amino acid [2, 16] | signal of molecular weight corresponding to N-caprinoyl amino acid [2, 17] | signal of molecular weight corresponding to N-caprinoyl amino acid [2, 18] | signal of molecular weight corresponding to N-caprinoyl amino acid [2, 19] | signal of molecular weight corresponding to N-caprinoyl amino acid [2, 20] | signal of molecular weight corresponding to N-caprinoyl amino acid [2, 21] | signal of molecular weight corresponding to N-caprinoyl amino acid [2, 22] | other results
B1 | + | + | + | + | + | + | + | + | + | + | + | + | + | + | + | + | + | + | + | + | signal of molecular weight corresponding to N-caprinoyl amino acid [2, 23]: +; signal of molecular weight corresponding to N-caprinoyl amino acid [2, 24]: +; signal of molecular weight corresponding to N-caprinoyl amino acid [2, 25]: +; signal of molecular weight corresponding to N-caprinoyl amino acid [2, 26]: +; signal of molecular weight corresponding to N-caprinoyl amino acid [2, 27]: +; signal of molecular weight corresponding to N-caprinoyl amino acid [2, 28]: +; signal of molecular weight corresponding to N-caprinoyl amino acid [2, 29]: +; signal of molecular weight corresponding to N-caprinoyl amino acid [2, 30]: +; signal of molecular weight corresponding to N-caprinoyl amino acid [2, 31]: +; signal of molecular weight corresponding to N-caprinoyl amino acid [2, 32]: +; signal of molecular weight corresponding to N-caprinoyl amino acid [2, 33]: +; signal of molecular weight corresponding to N-caprinoyl amino acid [2, 34]: +; signal of molecular weight corresponding to N-caprinoyl amino acid [2, 35]: +
B2 | + | + | + | + | + | + | + | − | + | − | + | + | + | + | + | + | + | + | + | + | signal of molecular weight corresponding to N-caprinoyl amino acid [2, 23]: −; signal of molecular weight corresponding to N-caprinoyl amino acid [2, 24]: +; signal of molecular weight corresponding to N-caprinoyl amino acid [2, 25]: +; signal of molecular weight corresponding to N-caprinoyl amino acid [2, 26]: +; signal of molecular weight corresponding to N-caprinoyl amino acid [2, 27]: +; signal of molecular weight corresponding to N-caprinoyl amino acid [2, 28]: +; signal of molecular weight corresponding to N-caprinoyl amino acid [2, 29]: −; signal of molecular weight corresponding to N-caprinoyl amino acid [2, 30]: +; signal of molecular weight corresponding to N-caprinoyl amino acid [2, 31]: +; signal of molecular weight corresponding to N-caprinoyl amino acid [2, 32]: +; signal of molecular weight corresponding to N-caprinoyl amino acid [2, 33]: +; signal of molecular weight corresponding to N-caprinoyl amino acid [2, 34]: +; signal of molecular weight corresponding to N-caprinoyl amino acid [2, 35]: +
